Laboratory results from the supplement of paper PMC12764529.
± gives the half width of the 95% confidence interval.

Tests used:
[1] = folding stability dG unfold from chymotrypsin proteolysis; higher = more stable
Procedure, shortened: (§1)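 Unfolding free energy was derived, per protease or combined, against a sequence-predicted unfolded-state K50 and a shared folded-state K50, starting from K50 inferred by Bayesian fitting of sequencing counts. Digestion with trypsin and chymotrypsin was carried out on designed mini-proteins under 80 residues without cysteine in a PA-tagged cDNA display construct. Only designs with AlphaFold2 dimer inter-PAE above 15 were kept.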

[2] = folding stability dG unfold (combined trypsin and chymotrypsin); higher = more stable
Procedure, shortened: as §1

[3] = folding stability dG unfold from trypsin proteolysis; higher = more stable
Procedure, shortened: as §1

## SAGGSAGGSAGSFVKGGTVYEIYKNPNTKKYTIVATPKNGKKYVFTFDSPEEAEKALKASSAGGSAGGSAGG [r11_238_TrMRF]
[1]
  folding stability dG unfold: 2.64 ± 0.046 kcal/mol
[2]
  folding stability dG unfold: 2.38 ± 0.065 kcal/mol
[3]
  folding stability dG unfold: 1.65 ± 0.036 kcal/mol

## SAGGSAGGSMKVEIKFPDGSVKTIPLSPEEPDVPPEALVKELGADNVTITYYTPDGVPINLGISAGGSAGGS [r12_411_JUSTAS]
[1]
  folding stability dG unfold: 0.916 ± 0.03 kcal/mol
[2]
  folding stability dG unfold: 0.706 ± 0.053 kcal/mol
[3]
  folding stability dG unfold: 0.297 ± 0.058 kcal/mol

## SAGGSAGGSKIEFTVPDNDELIEYIRKWFQDNGGQIKNIKIEPTPPNQVKVEIEINPGDPWFQSAGGSAGGS [r12_647_TrROS]
[1]
  folding stability dG unfold: 2.36 ± 0.077 kcal/mol
[2]
  folding stability dG unfold: 2.2 ± 0.14 kcal/mol
[3]
  folding stability dG unfold: 1.74 ± 0.041 kcal/mol

## SAGGSAKKIKIFSLEELRERFPDLSEEELKKRAEELAKELAERLKEEGKPVEVEIVEVKLPEEEKKSAGGSA [r15_287_TrROS_Hall]
[1]
  folding stability dG unfold: 2.107 ± 0.015 kcal/mol
[2]
  folding stability dG unfold: 1.69 ± 0.094 kcal/mol
[3]
  folding stability dG unfold: 0.382 ± 0.13 kcal/mol

## SAGGSADSVTFTDPNVEEQIVIPPYVIFKYPDGSVRIIAFDDGDKAEILEEIPFVPPLEPLHPDLESAGGSA [r15_393_TrMRF]
[1]
  folding stability dG unfold: 1.11 ± 0.076 kcal/mol
[2]
  folding stability dG unfold: 1.06 ± 0.17 kcal/mol
[3]
  folding stability dG unfold: 0.84 ± 0.03 kcal/mol

## SAGGSAGGSAGMVIEDPSGVTTVVTFDTSVPVVTTTTLTKDPNSNNYTTTTTTTPVTVPVSAGGSAGGSAGG [r17_491_JUSTAS]
[1]
  folding stability dG unfold: 0.725 ± 0.11 kcal/mol
[2]
  folding stability dG unfold: 1.06 ± 0.073 kcal/mol
[3]
  folding stability dG unfold: 1.34 ± 0.099 kcal/mol

## SAGGSAGGSAGMKTVTVTVPPSAGVDAVREALAAQGMTVTSVSREGDTLTVTTEAPPELLSAGGSAGGSAGG [r11_672_JUSTAS]
[1]
  folding stability dG unfold: 0.294 ± 0.08 kcal/mol
[2]
  folding stability dG unfold: 0.024 ± 0.13 kcal/mol
[3]
  folding stability dG unfold: -0.866 ± 0.14 kcal/mol

## SAGGSAGGSAGGGMSSVSLVKTSTITVGNGTVKLETLSYPDSSFVRTTLPNGKDVVEPLPSAGGSAGGSAGG [r7_655_JUSTAS]
[1]
  folding stability dG unfold: 0.105 ± 0.1 kcal/mol
[2]
  folding stability dG unfold: -0.089 ± 0.13 kcal/mol
[3]
  folding stability dG unfold: -0.561 ± 0.16 kcal/mol

## SMKVEIEEEVEGDRITLTIKFDDEEEAEKAIKELAKELGIPMKVLSRESEKLPGGEYKLTITGEVPPDLKSA [r9_102_JUSTAS]
[1]
  folding stability dG unfold: 1.1 ± 0.24 kcal/mol
[2]
  folding stability dG unfold: 0.529 ± 0.24 kcal/mol
[3]
  folding stability dG unfold: 0.192 ± 0.083 kcal/mol

## SAGGEEELKKNPDLIVIKITIRNKETGEEIEELEIVLSKEELEELLETLRKLLPPGWEIVKVEIRKLPSAGG [r13_849_TrROS_Hall]
[1]
  folding stability dG unfold: 3.02 ± 0.14 kcal/mol
[2]
  folding stability dG unfold: 4 ± 0.3 kcal/mol
[3]
  folding stability dG unfold: 4.11 ± 0.24 kcal/mol

## SASSSMSSSSTSRTVPTPEGPVSITITFYPSTGKYTATITDPATSTATTVPSPGSSVEEAIAEAIALLASAG [r14_65_JUSTAS]
[1]
  folding stability dG unfold: 2.39 ± 0.022 kcal/mol
[2]
  folding stability dG unfold: 2.21 ± 0.088 kcal/mol
[3]
  folding stability dG unfold: 1.94 ± 0.091 kcal/mol

## SRTIENPDNGIKITVDRVPGGRYRVHIFNPGGKPIHEREIPDMPIPPGDTREIKIPIKGLPPGMYLMLEPWS [r1_263_TrROS]
[1]
  folding stability dG unfold: 0.842 ± 0.13 kcal/mol
[2]
  folding stability dG unfold: 0.719 ± 0.13 kcal/mol
[3]
  folding stability dG unfold: 0.502 ± 0.16 kcal/mol

## SAGGSAGGSAGGMPTTATITLPGGETLTVPVPVDPSTGTVSEEEIRALVGPEFEFEILGGSAGGSAGGSAGG [r7_492_JUSTAS]
[1]
  folding stability dG unfold: 1.49 ± 0.062 kcal/mol
[2]
  folding stability dG unfold: 1.24 ± 0.068 kcal/mol
[3]
  folding stability dG unfold: 0.779 ± 0.04 kcal/mol

## SAGGMKKEKVKITIVVPVEDAEKLREALEKLGFKVVEEKENEDGLLTLTVEVDGKKIEIKIVKKEELSAGGS [r16_170_TrROS_Hall]
[1]
  folding stability dG unfold: 0.81 ± 0.095 kcal/mol
[2]
  folding stability dG unfold: 1.05 ± 0.28 kcal/mol
[3]
  folding stability dG unfold: 1.13 ± 0.088 kcal/mol

## SAGMVIVDPKTKKKITFDKESGEIYIEVDGKKKKIKLKPGEKVEIEIIEKDGKLIIKIKANGKIIEIEPSAG [r5_858_TrROS_Hall]
[1]
  folding stability dG unfold: 2.09 ± 0.12 kcal/mol
[2]
  folding stability dG unfold: 1.75 ± 0.2 kcal/mol
[3]
  folding stability dG unfold: 1.56 ± 0.17 kcal/mol

## SANVRRREIRIPAKDMPPNQIRDALRDLGFPPSKIENLDIERHKGNMITVKIYWTFENGQKQKIELHIPSAG [r14_30_TrROS]
[1]
  folding stability dG unfold: 1.29 ± 0.21 kcal/mol
[2]
  folding stability dG unfold: 1.11 ± 0.19 kcal/mol
[3]
  folding stability dG unfold: -0.105 ± 0.24 kcal/mol

## SAGGSAGGSAGGSYTVSEIPEEGLVLKTLPNGVVTRYKVSPDGSLEEIATFEPGNGVLIKSAGGSAGGSAGG [r7_659_JUSTAS]
[1]
  folding stability dG unfold: 1.1 ± 0.096 kcal/mol
[2]
  folding stability dG unfold: 0.766 ± 0.11 kcal/mol
[3]
  folding stability dG unfold: -0.0116 ± 0.3 kcal/mol

## SAGGSAEEEVVETEVVYDPETKELHVRTKVFKPKPEITIEVDMSLEEVKALLEELTGRKIDRVEIKSAGGSA [r15_101_TrROS_Hall]
[1]
  folding stability dG unfold: 1.68 ± 0.05 kcal/mol
[2]
  folding stability dG unfold: 1.34 ± 0.084 kcal/mol
[3]
  folding stability dG unfold: 0.433 ± 0.035 kcal/mol

## SAGGSAGGSAAISIDLPPNSVLNISIPVTEPGGKPYTVKISVYSTPLPSNSYELNIKVTIVSAGGSAGGSAG [r3_347_JUSTAS]
[1]
  folding stability dG unfold: 4.66 ± 0.093 kcal/mol
[2]
  folding stability dG unfold: 4.43 ± 0.12 kcal/mol
[3]
  folding stability dG unfold: 3.56 ± 0.15 kcal/mol

## SAGGSAGGSAGGSFKVTYFPGEKLLAVTFPDGSKKIFKIDDKGNPTIIAVIDPDKGKVLPSAGGSAGGSAGG [r7_659_TrMRF]
[1]
  folding stability dG unfold: 2.622 ± 0.02 kcal/mol
[2]
  folding stability dG unfold: 2.35 ± 0.051 kcal/mol
[3]
  folding stability dG unfold: 1.86 ± 0.034 kcal/mol

## MKTITITVTDAPPGTVTIRVEIEREDGSTIEIEKEITVKPGDTITITLKEDEPYKIKKIEIYHNGKKIEITS [r1_70_TrROS_Hall]
[1]
  folding stability dG unfold: 3.81 ± 0.1 kcal/mol
[2]
  folding stability dG unfold: 3.76 ± 0.33 kcal/mol
[3]
  folding stability dG unfold: 2.58 ± 0.15 kcal/mol

## SAGGSAGGSAGSSTSTSSDGVLTTYFPDGTVTSTETKPDPSTGTVLAVSTTTTPLPPDTLSAGGSAGGSAGG [r11_497_JUSTAS]
[1]
  folding stability dG unfold: 0.572 ± 0.035 kcal/mol
[2]
  folding stability dG unfold: 1.39 ± 0.032 kcal/mol
[3]
  folding stability dG unfold: 2.01 ± 0.044 kcal/mol

## SAGMPLYRIRVHPDIPDRIEITEVDAEDLPPGAVLKIRFRETGETVEVPLSDLDELLALPGIEEVELVSAGG [r19_302_TrROS_Hall]
[1]
  folding stability dG unfold: 1.11 ± 0.13 kcal/mol
[2]
  folding stability dG unfold: 0.841 ± 0.12 kcal/mol
[3]
  folding stability dG unfold: 0.305 ± 0.077 kcal/mol

## SAGGSAGGSAGGMKIKTITGDPSTGVYTITFPDGKVETIPMTQEEVEALAKENPGIEITLSAGGSAGGSAGG [r7_175_JUSTAS]
[1]
  folding stability dG unfold: 2.81 ± 0.049 kcal/mol
[2]
  folding stability dG unfold: 2.46 ± 0.097 kcal/mol
[3]
  folding stability dG unfold: 0.899 ± 0.035 kcal/mol

## SAGGSAGGSAGGKKYIIKNKKTNKYIEVDVIEKDGKLYVYDKKTGKVHEVSLKDLEIVPSAGGSAGGSAGGS [r10_28_TrROS_Hall]
[1]
  folding stability dG unfold: 2.56 ± 0.036 kcal/mol
[2]
  folding stability dG unfold: 2.33 ± 0.089 kcal/mol
[3]
  folding stability dG unfold: 1.84 ± 0.088 kcal/mol

## SAGGSAGGSSLKPGQELELTLTLRVEVEVEVYENGKPVERYRVEREVRLTLRLKLPAASLEDLSAGGSAGGS [r20_14_TrROS_Hall]
[1]
  folding stability dG unfold: 5.73 ± 0.21 kcal/mol
[2]
  folding stability dG unfold: 5.55 ± 0.15 kcal/mol
[3]
  folding stability dG unfold: 4.06 ± 0.14 kcal/mol

## SSSSTLVSSYTLTLKDEKGNEITLKVDVYKFPSGSYRVEITRPDGTVTEYEFPASEPPTEEKIKELALKKSA [r9_616_JUSTAS]
[1]
  folding stability dG unfold: 6.01 ± 0.13 kcal/mol
[2]
  folding stability dG unfold: > 6 kcal/mol
[3]
  folding stability dG unfold: 4.47 ± 0.46 kcal/mol

## SAPKIDSISIMWPGNHWYISIWYPDKNGEPMKEVMFPFESPEDLKDQIEELSPPGDVTVDIYPMPPDAFSAG [r14_964_TrROS]
[1]
  folding stability dG unfold: 1.54 ± 0.036 kcal/mol
[2]
  folding stability dG unfold: 1.51 ± 0.098 kcal/mol
[3]
  folding stability dG unfold: 1.38 ± 0.047 kcal/mol

## SAGGSAGGIKYRVMVHNPESGRWHRIDDIEIDPPDGRIKIRFPGNGKEITIPPGYPIMISPDMLSAGGSAGG [r6_885_TrROS]
[1]
  folding stability dG unfold: 0.793 ± 0.17 kcal/mol
[2]
  folding stability dG unfold: 0.795 ± 0.071 kcal/mol
[3]
  folding stability dG unfold: 0.662 ± 0.1 kcal/mol

## SAGGATRIRVLATNASGEKVELDIPQAIADAIAEALKQGKPIPPGPASVIAAFATSNGYDFEIVDISSAGGS [r8_159_TrMRF]
[1]
  folding stability dG unfold: 3.106 ± 0.031 kcal/mol
[2]
  folding stability dG unfold: 2.85 ± 0.093 kcal/mol
[3]
  folding stability dG unfold: 2.02 ± 0.062 kcal/mol

## SAMLRIRVEYEDGRVEDIVIPLAGEDPPFGKEAVEEAAERIAKEVEEKYGLKNVKTEVEAFPVSPEELLSAG [r14_378_TrMRF]
[1]
  folding stability dG unfold: 1.06 ± 0.2 kcal/mol
[2]
  folding stability dG unfold: 0.818 ± 0.1 kcal/mol
[3]
  folding stability dG unfold: 0.326 ± 0.096 kcal/mol
